According to patent US20210388087A1 (Chugai, published 2021):
Where a chain is given by its changes, count along the chain named. Blank lines part the entries; values can stand above or below the binder they belong to.

Target: T1, Human CD137 ECD (human)
T1 construct: entry includes C-terminal His-tag and biotin acceptor peptide; also called human CD137 extracellular domain; 4-1BB
Experiment: Biacore SPR, vs parent H183/L072

T1 sequence (chain, as listed by the source limits assumed): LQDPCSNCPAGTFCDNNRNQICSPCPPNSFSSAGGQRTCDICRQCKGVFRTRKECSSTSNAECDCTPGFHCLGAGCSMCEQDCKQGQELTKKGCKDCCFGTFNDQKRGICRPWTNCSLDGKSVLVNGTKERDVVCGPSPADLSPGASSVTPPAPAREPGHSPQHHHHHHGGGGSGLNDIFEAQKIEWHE

fold change of affinity: 1.1 fold
B1: H183/L072 VL E27aQ (antibody, name in Kabat numbering, V domains shown)
VH: QVQLVESGGGLVQPGRSLRLSCAASGFTFSNAWMHWVRQAPGKGLEWVAQIKDKGNAYAAYYAPSVKGRFTISRDDSKNSIYLQMNSLKTEDTAVYYCHYVHYASASTVLPAFGVDAWGQGTTVTVSS
VL: DIVMTQSPLSLPVTPGEPASISCQASQQLVHMNRNTYLHWYQQKPGQAPRLLIYKVSNRFPGVPDRFSGSGSGTDFTLKISRVEAEDVGVYYCAQGTSVPFTFGQGTKLEIK
notes: Dual-Ig

fold change of affinity: 0 fold
B2: H183/L072 VL F55S (antibody, name in Kabat numbering, V domains shown)
VH: B1 VH
VL: B1 VL with Q28E, F60S
notes: Dual-Ig

fold change of affinity: 0 fold
B3: H183/L072 VL F96I (antibody, name in Kabat numbering, V domains shown)
VH: B1 VH
VL: B1 VL with Q28E, F101I
notes: Dual-Ig

fold change of affinity: 0 fold
B4: H183/L072 VL F96S (antibody, name in Kabat numbering, V domains shown)
VH: B1 VH
VL: B1 VL with Q28E, F101S
notes: Dual-Ig

fold change of affinity: 0 fold
B5: H183/L072 VL G91D (antibody, name in Kabat numbering, V domains shown)
VH: B1 VH
VL: B1 VL with Q28E, G96D
notes: Dual-Ig

fold change of affinity: 0 fold
B6: H183/L072 VL G91H (antibody, name in Kabat numbering, V domains shown)
VH: B1 VH
VL: B1 VL with Q28E, G96H
notes: Dual-Ig

fold change of affinity: 0 fold
B7: H183/L072 VL F96A (antibody, name in Kabat numbering, V domains shown)
VH: B1 VH
VL: B1 VL with Q28E, F101A
notes: Dual-Ig

fold change of affinity: 0 fold
B8: H183/L072 VL G91K (antibody, name in Kabat numbering, V domains shown)
VH: B1 VH
VL: B1 VL with Q28E, G96K
notes: Dual-Ig

fold change of affinity: 0 fold
B9: H183/L072 VL G91I (antibody, name in Kabat numbering, V domains shown)
VH: B1 VH
VL: B1 VL with Q28E, G96I
notes: Dual-Ig

fold change of affinity: 1 fold
B10: H183/L072 VL E27aW (antibody, name in Kabat numbering, V domains shown)
VH: B1 VH
VL: B1 VL with Q28W
notes: Dual-Ig

fold change of affinity: 0 fold
B11: H183/L072 VL F55G (antibody, name in Kabat numbering, V domains shown)
VH: B1 VH
VL: B1 VL with Q28E, F60G
notes: Dual-Ig

fold change of affinity: 0 fold
B12: H183/L072 VL F96G (antibody, name in Kabat numbering, V domains shown)
VH: B1 VH
VL: B1 VL with Q28E, F101G
notes: Dual-Ig

fold change of affinity: 0 fold
B13: H183/L072 VL F55E (antibody, name in Kabat numbering, V domains shown)
VH: B1 VH
VL: B1 VL with Q28E, F60E
notes: Dual-Ig

fold change of affinity: 0 fold
B14: H183/L072 VL F96H (antibody, name in Kabat numbering, V domains shown)
VH: B1 VH
VL: B1 VL with Q28E, F101H
notes: Dual-Ig

fold change of affinity: 0 fold
B15: H183/L072 VL F55N (antibody, name in Kabat numbering, V domains shown)
VH: B1 VH
VL: B1 VL with Q28E, F60N
notes: Dual-Ig

fold change of affinity: 0 fold
B16: H183/L072 VL F55T (antibody, name in Kabat numbering, V domains shown)
VH: B1 VH
VL: B1 VL with Q28E, F60T
notes: Dual-Ig

fold change of affinity: 0.4 fold
B17: H183/L072 VL G91A (antibody, name in Kabat numbering, V domains shown)
VH: B1 VH
VL: B1 VL with Q28E, G96A
notes: Dual-Ig

fold change of affinity: 0 fold
B18: H183/L072 VL F96D (antibody, name in Kabat numbering, V domains shown)
VH: B1 VH
VL: B1 VL with Q28E, F101D
notes: Dual-Ig

fold change of affinity: 0 fold
B19: H183/L072 VL G91E (antibody, name in Kabat numbering, V domains shown)
VH: B1 VH
VL: B1 VL with Q28E, G96E
notes: Dual-Ig

fold change of affinity: 0 fold
B20: H183/L072 VL F96T (antibody, name in Kabat numbering, V domains shown)
VH: B1 VH
VL: B1 VL with Q28E, F101T
notes: Dual-Ig

fold change of affinity: 0.2 fold
B21: H183/L072 VL F55L (antibody, name in Kabat numbering, V domains shown)
VH: B1 VH
VL: B1 VL with Q28E, F60L
notes: Dual-Ig

fold change of affinity: 0 fold
B22: H183/L072 VL F55K (antibody, name in Kabat numbering, V domains shown)
VH: B1 VH
VL: B1 VL with Q28E, F60K
notes: Dual-Ig

fold change of affinity: 0 fold
B23: H183/L072 VL F55R (antibody, name in Kabat numbering, V domains shown)
VH: B1 VH
VL: B1 VL with Q28E, F60R
notes: Dual-Ig

fold change of affinity: 0 fold
B24: H183/L072 VL F55P (antibody, name in Kabat numbering, V domains shown)
VH: B1 VH
VL: B1 VL with Q28E, F60P
notes: Dual-Ig

fold change of affinity: 0.9 fold
B25: H183/L072 VL E27aR (antibody, name in Kabat numbering, V domains shown)
VH: B1 VH
VL: B1 VL with Q28R
notes: Dual-Ig

fold change of affinity: 0 fold
B26: H183/L072 VL F96Q (antibody, name in Kabat numbering, V domains shown)
VH: B1 VH
VL: B1 VL with Q28E, F101Q
notes: Dual-Ig

fold change of affinity: 0 fold
B27: H183/L072 VL F55H (antibody, name in Kabat numbering, V domains shown)
VH: B1 VH
VL: B1 VL with Q28E, F60H
notes: Dual-Ig

fold change of affinity: 0 fold
B28: H183/L072 VL G91F (antibody, name in Kabat numbering, V domains shown)
VH: B1 VH
VL: B1 VL with Q28E, G96F
notes: Dual-Ig

fold change of affinity: 0 fold
B29: H183/L072 VL F96L (antibody, name in Kabat numbering, V domains shown)
VH: B1 VH
VL: B1 VL with Q28E, F101L
notes: Dual-Ig

fold change of affinity: 0.5 fold
B30: H183/L072 VL E27aT (antibody, name in Kabat numbering, V domains shown)
VH: B1 VH
VL: B1 VL with Q28T
notes: Dual-Ig

fold change of affinity: 0 fold
B31: H183/L072 VL F96N (antibody, name in Kabat numbering, V domains shown)
VH: B1 VH
VL: B1 VL with Q28E, F101N
notes: Dual-Ig

fold change of affinity: 0 fold
B32: H183/L072 VL F96P (antibody, name in Kabat numbering, V domains shown)
VH: B1 VH
VL: B1 VL with Q28E, F101P
notes: Dual-Ig

fold change of affinity: 0 fold
B33: H183/L072 VL F55V (antibody, name in Kabat numbering, V domains shown)
VH: B1 VH
VL: B1 VL with Q28E, F60V
notes: Dual-Ig

fold change of affinity: 0.2 fold
B34: H183/L072 VL F55M (antibody, name in Kabat numbering, V domains shown)
VH: B1 VH
VL: B1 VL with Q28E, F60M
notes: Dual-Ig

fold change of affinity: 0 fold
B35: H183/L072 VL F55Q (antibody, name in Kabat numbering, V domains shown)
VH: B1 VH
VL: B1 VL with Q28E, F60Q
notes: Dual-Ig

fold change of affinity: 0 fold
B36: H183/L072 VL F96R (antibody, name in Kabat numbering, V domains shown)
VH: B1 VH
VL: B1 VL with Q28E, F101R
notes: Dual-Ig

fold change of affinity: 0 fold
B37: H183/L072 VL F96E (antibody, name in Kabat numbering, V domains shown)
VH: B1 VH
VL: B1 VL with Q28E, F101E
notes: Dual-Ig

fold change of affinity: 0 fold
B38: H183/L072 VL F96M (antibody, name in Kabat numbering, V domains shown)
VH: B1 VH
VL: B1 VL with Q28E, F101M
notes: Dual-Ig

fold change of affinity: 0 fold
B39: H183/L072 VL F96V (antibody, name in Kabat numbering, V domains shown)
VH: B1 VH
VL: B1 VL with Q28E, F101V
notes: Dual-Ig

fold change of affinity: 0 fold
B40: H183/L072 VL F96K (antibody, name in Kabat numbering, V domains shown)
VH: B1 VH
VL: B1 VL with Q28E, F101K
notes: Dual-Ig

fold change of affinity: 0 fold
B41: H183/L072 VL F55I (antibody, name in Kabat numbering, V domains shown)
VH: B1 VH
VL: B1 VL with Q28E, F60I
notes: Dual-Ig

fold change of affinity: 0.2 fold
B42: H183/L072 VL F55W (antibody, name in Kabat numbering, V domains shown)
VH: B1 VH
VL: B1 VL with Q28E, F60W
notes: Dual-Ig

fold change of affinity: 0 fold
B43: H183/L072 VL F96W (antibody, name in Kabat numbering, V domains shown)
VH: B1 VH
VL: B1 VL with Q28E, F101W
notes: Dual-Ig

fold change of affinity: 0.6 fold
B44: H183/L072 VL E27aS (antibody, name in Kabat numbering, V domains shown)
VH: B1 VH
VL: B1 VL with Q28S
notes: Dual-Ig

fold change of affinity: 0 fold
B45: H183/L072 VL F55D (antibody, name in Kabat numbering, V domains shown)
VH: B1 VH
VL: B1 VL with Q28E, F60D
notes: Dual-Ig

fold change of affinity: 1.1 fold
B46: H183/L072 VL E27aY (antibody, name in Kabat numbering, V domains shown)
VH: B1 VH
VL: B1 VL with Q28Y
notes: Dual-Ig
